From patent US20250326823A1

What was measured:
Assay in all cases: cell-based or functional assay
[1] = target: SARS-CoV-2 spike (S) protein, BA.2.12.1 variant (SARS-CoV-2) (UniProt P0DTC2)
[2] = target: SARS-CoV-2 spike (S) protein, variant XBB (SARS-CoV-2) (UniProt P0DTC2)
[3] = target: SARS-CoV-2 spike (S) protein, variant BQ.1.1 (SARS-CoV-2) (UniProt P0DTC2)
[4] = target: SARS-CoV-2 spike (S) protein, BA.4.6 variant (SARS-CoV-2) (UniProt P0DTC2)
[5] = target: SARS-CoV-2 spike (S) protein, BA.1 variant (SARS-CoV-2) (UniProt P0DTC2)
[6] = target: SARS-CoV-2 spike (S) protein, BA.2.75 variant (SARS-CoV-2) (UniProt P0DTC2)
[7] = target: SARS-CoV-2 spike (S) protein, BA.2.75.2 variant (SARS-CoV-2) (UniProt P0DTC2)
[8] = target: SARS-CoV-2 spike (S) protein, variant BJ.1 (SARS-CoV-2) (UniProt P0DTC2)
[9] = target: SARS-CoV-2 spike (S) protein, BA.4/5 variant (SARS-CoV-2) (UniProt P0DTC2)
[10] = target: SARS-CoV-2 spike (S) protein, variant KP.3 (SARS-CoV-2)
[11] = target: SARS-CoV-2 spike (S) protein, variant CH.1.1 (SARS-CoV-2)
[12] = target: SARS-CoV-2 spike (S) protein, variant KP.2.3 (SARS-CoV-2)
[13] = target: SARS-CoV-2 spike (S) protein, variant LB.1 (SARS-CoV-2)
[14] = target: SARS-CoV-2 spike (S) protein, variant KP.3.1.1 (SARS-CoV-2)
[15] = target: SARS-CoV-2 spike (S) protein, variant JN.1 (SARS-CoV-2)
[16] = target: SARS-CoV-2 spike (S) protein, variant BA.2.86 (SARS-CoV-2)
[17] = target: SARS-CoV-2 spike (S) protein, variant EG.5.1 (SARS-CoV-2)
[18] = target: SARS-CoV-2 spike (S) protein, variant XEC (SARS-CoV-2)
[19] = target: SARS-CoV-2 spike (S) protein, variant KP.2 (SARS-CoV-2)
[20] = target: SARS-CoV-2 spike (S) protein, D614G (SARS-CoV-2) (UniProt P0DTC2)
[21] = target: SARS-CoV-2 spike (S) protein, variant KP.2.3 (SARS-CoV-2) (UniProt P0DTC2)
[22] = target: SARS-CoV-2 spike (S) protein, variant KP.3 (SARS-CoV-2) (UniProt P0DTC2)
[23] = target: SARS-CoV-2 spike (S) protein, variant XEC (SARS-CoV-2) (UniProt P0DTC2)
[24] = target: SARS-CoV-2 spike (S) protein, variant LB.1 (SARS-CoV-2) (UniProt P0DTC2)
[25] = target: SARS-CoV-2 spike (S) protein, variant CH.1.1 (SARS-CoV-2) (UniProt P0DTC2)
[26] = target: SARS-CoV-2 spike (S) protein, variant JN.1 (SARS-CoV-2) (UniProt P0DTC2)
[27] = target: SARS-CoV-2 spike (S) protein, variant KP.2 (SARS-CoV-2) (UniProt P0DTC2)
[28] = target: SARS-CoV-2 spike (S) protein, variant KP.3.1.1 (SARS-CoV-2) (UniProt P0DTC2)
[29] = target: SARS-CoV-2 spike (S) protein, variant EG.5.1 (SARS-CoV-2) (UniProt P0DTC2)
[30] = target: SARS-CoV-2 spike (S) protein, variant BA.2.86 (SARS-CoV-2) (UniProt P0DTC2)

LY-CoV-1404 (antibody) gave a pseudotyped neutralization potency IC50 [1] of 0.0013 µg/mL, a pseudotyped neutralization potency IC80 [1] of 0.004 µg/mL and a pseudotyped neutralization potency IC50 [2] greater than 10 µg/mL. It also gave a pseudotyped neutralization potency IC80 [2] greater than 10 µg/mL, a pseudotyped neutralization potency IC50 [3] greater than 10 µg/mL and a pseudotyped neutralization potency IC80 [3] greater than 10 µg/mL. The pseudotyped neutralization potency IC50 [4] was 0.0004 µg/mL, the pseudotyped neutralization potency IC80 [4] was 0.0014 µg/mL and the pseudotyped neutralization potency IC50 [5] was 0.002 µg/mL. The pseudotyped neutralization potency IC80 [5] was 0.005 µg/mL, the pseudotyped neutralization potency IC50 [6] was 0.003 µg/mL and the pseudotyped neutralization potency IC80 [6] was 0.015 µg/mL. For the same substance, the pseudotyped neutralization potency IC50 [7] was 0.001 µg/mL, the pseudotyped neutralization potency IC80 [7] was 0.005 µg/mL and the pseudotyped neutralization potency IC50 [8] was greater than 10 µg/mL. It also gave a pseudotyped neutralization potency IC80 [8] greater than 10 µg/mL, a pseudotyped neutralization potency IC50 [9] of 0.0014 µg/mL and a pseudotyped neutralization potency IC80 [9] of 0.003 µg/mL.

VYD222 (antibody) showed a neutralization IC50 [10] of 1.32 µg/mL, a neutralization IC50 [11] of 1.49 µg/mL and a neutralization IC50 [12] of 4.25 µg/mL. For the same substance, the neutralization IC50 [13] was 4.62 µg/mL, the neutralization IC50 [14] was 4.05 µg/mL and the neutralization IC50 [15] was 0.706 µg/mL. The neutralization IC50 [16] was 2.13 µg/mL, the neutralization IC50 [17] was 0.899 µg/mL and the neutralization IC50 [18] was greater than 10 µg/mL. The neutralization IC50 [19] was 0.684 µg/mL, the neutralization IC50 [20] was 0.01 µg/mL and the neutralizing activity IC50 (µg/ml (caption; values match nM)) [21] was 28.4. It also gave a neutralizing activity IC80 (µg/ml (caption; values match nM)) [21] of 66.3, a neutralizing activity IC50 (µg/ml (caption; values match nM)) [22] of 8.83 and a neutralizing activity IC80 (µg/ml (caption; values match nM)) [22] of 39.5. The neutralizing activity IC50 (µg/ml (caption; values match nM)) [23] was greater than 67, the neutralizing activity IC80 (µg/ml (caption; values match nM)) [23] was greater than 67 and the neutralizing activity IC50 (µg/ml (caption; values match nM)) [24] was 30.8. For the same substance, the neutralizing activity IC80 (µg/ml (caption; values match nM)) [24] was greater than 67, the neutralizing activity IC50 (µg/ml (caption; values match nM)) [25] was 9.93 and the neutralizing activity IC80 (µg/ml (caption; values match nM)) [25] was 30.4. It also gave a neutralizing activity IC50 (µg/ml (caption; values match nM)) [26] of 4.71, a neutralizing activity IC80 (µg/ml (caption; values match nM)) [26] of 15.6 and a neutralizing activity IC50 (µg/ml (caption; values match nM)) [27] of 4.56. It also gave a neutralizing activity IC80 (µg/ml (caption; values match nM)) [27] of 16.5, a neutralizing activity IC50 (µg/ml (caption; values match nM)) [28] of 27.2 and a neutralizing activity IC80 (µg/ml (caption; values match nM)) [28] greater than 67. It also gave a neutralizing activity IC50 (µg/ml (caption; values match nM)) [29] of 6, a neutralizing activity IC80 (µg/ml (caption; values match nM)) [29] of 20.9 and a neutralizing activity IC50 (µg/ml (caption; values match nM)) [30] of 14.2. It also gave a neutralizing activity IC80 (µg/ml (caption; values match nM)) [30] of 36.7.
